Assays:
[1] = target: T1, NADP-Malate Dehydrogenase (Zea mays, UniProt P15719); assay: Activation of chloroplast NADP-malate dehydrogenase by thioredoxin-reduced proteins; format: biochemical, corn; details: 20 μg protein; DTT→Thioredoxin→Indicated Protein→Target Enzyme
T1 construct: NADP-malate dehydrogenase (NADP-MDH) and fructose-1,6-bisphosphatase (FBPase) were purified from leaves of corn; from tissue; host or cells: corn leaves
T1 sequence (P15719 whole entry, looked up): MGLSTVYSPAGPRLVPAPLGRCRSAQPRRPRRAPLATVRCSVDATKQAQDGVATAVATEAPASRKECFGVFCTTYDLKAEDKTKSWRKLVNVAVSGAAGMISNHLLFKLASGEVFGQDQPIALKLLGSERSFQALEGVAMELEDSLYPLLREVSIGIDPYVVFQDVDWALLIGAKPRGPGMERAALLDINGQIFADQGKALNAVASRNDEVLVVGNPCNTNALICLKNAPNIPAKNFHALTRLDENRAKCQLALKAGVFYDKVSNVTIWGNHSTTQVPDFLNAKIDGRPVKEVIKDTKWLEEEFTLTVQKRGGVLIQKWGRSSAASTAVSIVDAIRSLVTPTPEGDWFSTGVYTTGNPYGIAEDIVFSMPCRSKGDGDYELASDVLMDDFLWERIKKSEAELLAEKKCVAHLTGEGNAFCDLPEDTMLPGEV
Experimental: The NADP-MDH, FBPase, NTR and Thioredoxin h assay methods were according to Florencio, F. J. et al. (1988), Arch. Biochem. Biophys. 266:496-507 with slight modifications as indicated. For enzyme activation assays, the preincubation time was 20 min unless specified otherwise.
The capability to replace a specific thioredoxin in the activation of chloroplast enzymes is one test for the ability of thiol groups of a given protein to undergo reversible redox change. […] A case in point is purothionin which, when reduced by thioredoxin h activates chloroplast FBPase (Wada, K. et al. (1981), FEBS Lett. 124:237-240, and Johnson, T. C. et al. (1987), Plant Physiol. 85:446-451). The FBPase, whose physiological activator is thioredoxin f, is unaffected by thioredoxin h. In this Example, the ability of cystine-rich proteins to activate FBPase as well as NADP-MDH was tested as set forth above. […]
The Wada et al., 1981 protocol was used for assaying NADP-malate dehydrogenase and fructose 1,6 bisphosphatase in the presence of thioredoxin and 2S protein. […] The 2S protein was monitored during purification by mBBr/SDS-polyacrylamide gel electrophoresis following its reduction by dithiothreitol and E. coli thioredoxin (Crawford et al., 1989; Kobrehel et al., 1991).

glutaredoxin = target: T2, glutaredoxin (Escherichia coli, UniProt P68688); assay: Reduction by glutaredoxin relative to thioredoxin (mBBr/SDS-PAGE, densitometric scanning); format: biochemical; details: glutathione reductase, NADPH
T2 construct: gift of Professor A. Holmgren
T2 sequence (P68688 1-85): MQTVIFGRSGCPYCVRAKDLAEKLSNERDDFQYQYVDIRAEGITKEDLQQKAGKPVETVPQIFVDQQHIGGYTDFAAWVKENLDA
Experimental: Direct reduction of the proteins under study was determined by a modification of the method of Crawford et al. (Crawford, N. A. et al. (1989), Arch. Biochem. Biophys. 271:223-239). The reaction was carried out in 100 mM potassium phosphate buffer, pH 7.1, containing 10 mM EDTA and 16% glycerol in a final volume of 0.1 ml. As indicated, 0.7 μg (0.1 μM) NTR and 1 μg (0.8 μM) thioredoxin (both routinely from E. coli were added to 70 μl of the buffer solution containing 1 mM NADPH and 10 μg (2 to 17 μM) of target protein. When thioredoxin was reduced by dithiothreitol (DTT, 0.5 mM), NADPH and NTR were omitted. Assays with reduced glutathione were performed similarly, but at a final concentration of 1 mM. After incubation for 20 min, 100 nmoles of mBBr were added and the reaction was continued for another 15 min. To stop the reaction and derivatize excess mBBr, 10 μl of 10% SDS and 10 μl of 100 mM β-mercaptoethanol were added and the samples were then applied to the gels. […]
This ability was tested, using glutaredoxin from E. coli and the seed proteins currently under study. Reduction activity was monitored by the mBBr/SDS polyacrylamide gel electrophoresis procedure coupled with densitometric scanning.

B1: Soybean Kunitz: Kunitz soybean trypsin inhibitor (protein, UniProt P01070 25-205, looked up)
Trypsin inhibitor A: DFVLDNEGNPLENGGTYYILSDITAFGGIRAAPTGNERCPLTVVQSRNELDKGIGTIISSPYRIRFIAEGHPLSLKFDSFAVIMLCVGIPTEWSVVEDLPEGPAVKIGENKDAMDGWFRLERVSDDEFNNYKLVFCPQQAEDDKCGDIGISIDHDDGTRRLVVSKNKPLVVQFQKLDKESL
ACTIVITY, NADP-MDH [1]: 2 nkat/mg | percentage reduction relative to E. coli thioredoxin (glutaredoxin): ineffective

From patent US6677433B2 (The Regents of the University of California, priority 2001, dated 2004)
